From publication PMC7134607 (Biochemical and Biophysical Research Communications, 2004)

Target: the molecule itself
Assay: enzyme activity versus enzyme concentration

B1: SARS main protease (enzyme)
chain: SGFRKMAFPSGKVEGCMVQVTCGTTTLNGLWLDDTVYCPRHVICTAEDMLNPNYEDLLIRKSNHSFLVQAGNVQLRVIGHSMQNCLLRLKVDTSNPKTPKYKFVRIQPGQTFSVLACYNGSPSGVYQCAMRPNHTIKGSFLNGSCGSVGFNIDYDCVSFCYMHHMELPTGVHAGTDLEGKFYGPFVDRQTAQAAGTDTTITLNVLAWLYAAVINGDRWFLNRFTTTLNDFNLVAMKYNYEPLTQDHVDILGPLSAQTGIAVLDMCAALKELLQNGMNGRTILGSTILEDEFTPFDVVRQCSGVTFQ
B1 gave a Kd of 15 ± 4 nM.
